Measured values taken from US20260102474A1 (published 2026).
Changes are numbered by the printed parent chain.

B1: ACE2-M2-FcKO (Fc fusion)
chain: STIEEQAKYFLDYFNVQAEDLFYQSSLASWNYNTNITEENVQNMNNAGDKWSAFLKEQSTYAQRYPLQEIQNLTVKLQLQALQQNGSSVLSEDKSKRLNTILNTMSTIYSTGKVCNPDNPQECLLLEPGLNEIMANSLDYNERLWAWESWRSEVGKQLRPLYEEYVVLKNEMARANHYEDYGDYWRGDYEVNGVDGYDYSRGQLIEDVEHTFEEIKPLYEHLHAYVRAKLMNAYPSYISPIGCLPAHLLGDMWGRFWTNLYSLTVPFGQKPNIDVTDAMVDQAWDAQRIFKEAEKFFVSVGLPNMTQGFWEYSMLTDPGNVQKAVCHPTAWDLGKGDFRILMCTKVTMDDFLTAHREMGRIQYDMAYAAQPFLLRNGANEGFHEAVGEIMSLSAATPKHLKSIGLLSPDFQEDNETEINFLLKQALTIVGTLPFTYMLEKWRWMVFKGEIPKDQWMKKWWEMKREIVGVVEPVPHDETYCDPASLFHVSNDYSFIRYYTRTLYQFQFQEALCQAAKHEGPLHKCDISNSTEAGQKLFNMLRLGKSEPWTLALENVVGAKNMNVRPLLNYFEPLFTWLKDQNKNSFVGWSTDWSPYADQSIKVRISLKSALGDKAYEWNDNEMYLFRSSVAYAMRQYFLKVKNQMILFGEEDVRVANLKPRISFNFFVTAPKNVSDIIPRTEVEKAIRMSRSRINDAFRLNDNSLEFLGIQPTLGPPNQPPVSSGGGGSGGGGSGGGGSEPKSSDKTHTCPPCPAPPVAGPSVFLFPPKPKDTLMISRTPEVTCVVVGVSHEDPEVKFNWYVDGVEVHNAKTKPREEQYNSTYRVVSVLTVLHQDWLNGKEYKCKVSNKQLPSPIEKTISKAKGQPGQPREPQVYTLPPSRDELTKNQVSLTCLVKGFYPSDIAVEWESNGQPENNYKTTPPVLDSDGSFFLYSKLTVDKSRWQQGNVFSCSVMHEALHNHYTQKSLSLSPGK
B2: ACE2-M1-FcKO (Fc fusion)
chain: B1 chain with Y13K, V16H, Q17E, R64M

Experiments:
[1] = biological target: SARS-COV-2 spike protein on Caco-2 cells infected with the original version of SARS-COV-2 (SARS-COV-2-mNG) (SARS-COV-2, UniProt P0DTC2 14-1273); test: flow
[2] = biological target: SARS-COV-2 full-length trimeric spike protein, parental (SARS-COV-2, UniProt P0DTC2 14-1213); test: competition

Row | Binder | EC50 [1] [µg/mL] | IC50 [2] [nM]
1 | B1 | 0.48 | 9.4
2 | B2 | 0.29 | 3.8
